The text below walks through data of patent US20250382726A1.

Experiment [1] deals with recombinant Cathepsin S protein (UniProt P25774). As to the kind of experiment: BLI (Octet), captured IgG, Cathepsin S 200 ng/ml, 25 C; Run 1; Affinity to be determined.
In experiment [2] the target is recombinant HER2 (Acro Biosystems; P/N. H5225) (UniProt P04626). As to the kind of experiment: BLI (Octet), IgG captured on anti-human Fc biosensors, HER2 5-0.078 nM in solution, 37 C, 1:1 global fit, mean of duplicates. (In BLI a coated tip is dipped into the sample, and binding shifts an interference pattern.)
Experiment [3] deals with recombinant Cathepsin S protein (UniProt P25774). As to the kind of experiment: BLI (Octet), captured IgG, Cathepsin S 200 ng/ml, 25 C; Run 2, Fsn0503h control.
For experiment [4] the target is unchanged. As to the kind of experiment: BLI (Octet), captured IgG, Cathepsin S 200 ng/ml, 25 C; Run 2, second Fsn0503h control row.
The target is the same in experiment [5]. The experiment can be described thus: BLI (Octet), captured IgG, Cathepsin S 200 ng/ml, 25 C; Run 1, Fsn0503h control.
The target is the same in experiment [6]. The experiment can be described thus: BLI (Octet), captured IgG, Cathepsin S 200 ng/ml, 25 C; Run 1, first Fsn0503h control row.
Experiment [7] shares this target. As to the kind of experiment: BLI (Octet), IgG captured on anti-human biosensors, 200 ng/ml recombinant Cathepsin S, 25 C.

By Kd is commonly meant the free concentration of one partner at which half of the binding sites on the other are occupied at equilibrium, for simple one-to-one binding. As a reminder, the koff is the first-order rate constant of dissociation. One may read the kon as the second-order rate constant of association. With WT (antibody), in experiment [1], the Kd is less than 0.001 nM, the dissociation rate constant (koff) is less than 1e-07 s⁻¹ and the kon was 45100 M⁻¹ s⁻¹.

For the molecule “Wild-Type (antibody having sequence of trastuzumab, transiently expressed in parallel with the variants)”, the Kd in experiment [2] is 0.126 nM.

B1: Fsn0503h, humanised anti-Cathepsin S antibody (Fusion Antibodies) (antibody, V domains shown)
VH: EVQLVESGGGLVKPGGSLRLSCAASGFAFSSYDMSWVRQAPGKGLEWVAYITTGGVNTYYPDTVKGRFTISRDNAKNTLYLQMSSLKSEDTAVYYCARHSYFDYWGQGTTVTVSS
VL: DVVMTQSPLSLPVTLGQPASISCRSSQSLVHSNGNTYLHWYLQKPGQSPQLLIYKVSNRFSGVPDRFSGSGSGTDFTLKISRVEAEDVGVYYCSQTTHVPPTFGQGTKLEIK
Take B1: the Kd in experiment [3] stood at 4.39 nM; in experiment [4], 5.11 nM; in experiment [5], 5.47 nM; in experiment [6] it was 3.05 nM; in experiment [7], 4.45 nM. Besides, the koff in experiment [3] turned out to be 0.000188 s⁻¹; in experiment [4], 0.000242 s⁻¹; in experiment [5], 0.000144 s⁻¹; in experiment [6], 0.000121 s⁻¹. Moreover, the figures for the kon in experiment [3], in experiment [5] and in experiment [6] were 42800 M⁻¹ s⁻¹, 26200 M⁻¹ s⁻¹ and 39600 M⁻¹ s⁻¹, respectively.
